In patent publication US20180051059A1:

Target: endogenous Ldb1 complexes at the LCR (in G1E cells) (UniProt P70662)
Experiment: cell-based or functional assay

Chain of UniProt P70662 (P70662 2-411 limits assumed, one chain of several): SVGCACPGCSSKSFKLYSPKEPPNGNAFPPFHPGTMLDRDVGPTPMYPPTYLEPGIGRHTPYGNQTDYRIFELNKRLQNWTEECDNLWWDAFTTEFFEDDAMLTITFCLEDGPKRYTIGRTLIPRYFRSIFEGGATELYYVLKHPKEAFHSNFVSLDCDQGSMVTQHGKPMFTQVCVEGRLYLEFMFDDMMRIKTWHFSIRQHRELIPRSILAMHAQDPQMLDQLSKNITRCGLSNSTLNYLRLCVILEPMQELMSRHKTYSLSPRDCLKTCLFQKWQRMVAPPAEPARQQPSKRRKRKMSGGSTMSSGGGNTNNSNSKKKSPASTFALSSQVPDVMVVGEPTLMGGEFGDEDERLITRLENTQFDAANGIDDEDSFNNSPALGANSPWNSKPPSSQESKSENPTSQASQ

β-globin transcription in G1E cells (RT-qPCR): > 1000 fold
Substance: P-Ldb1 (P-ZF, zinc finger protein targeting the β-major promoter, fused to full length Ldb1)
